# Reference: publication PMC3701795, “Heterologous expression and characterization of a malathion-hydrolyzing carboxylesterase from a thermophilic bacterium, Alicyclobacillus tengchongensis” (Biotechnology Letters, 2013)
# Test system: CC(=O)Oc1ccc2ccccc2c1
# Test: purified protein
# Details: pH 7 potassium phosphate, 60 °C, 0.1-0.95 mM substrate
substance,measurement,value
D1CarE5 (Alicyclobacillus sp. D-1),Km,1000 µM
